Laboratory results: patent publication US20200199244A1 (published 2020)

Tests used:
[1] = target: T1, human CD40 (BMS, CY24FEB06-01) (human, UniProt P25942 21-193); assay: bead RBA, competition with IZ-CD40L
T1 construct: Soluble reagent of the bead and ELISA RBA; It is detected with an anti-human IgG (Fc) mAb, so it may be a CD40-Ig fusion

human CD40 [2] = target: T2, human CD40 (human, UniProt P25942 21-277); assay: CHO-CD40 cell RBA: competition with biotinylated human IZ-CD40L for human CD40 on CHO cells, fluorescence (FMAT); 0.1% BSA
T2 construct: Native on primary human tonsillar B cells, monocyte-derived dendritic cells and RAMOS cells; stably transfected on CHO-DG44 cells; also called hCD40

human CD40 [3] = target: T2, human CD40; assay: CHO-CD40 cell RBA: competition with biotinylated human IZ-CD40L for human CD40 on CHO cells, fluorescence (FMAT); 50 µM HSA

Row | Binder | EC50 [1] [nM] | EC50 (human CD40 [2]) [nM] | EC50 (human CD40 [3]) [nM]
1 | BMS3h-197 (other, dAb, single VH) VH: EVQLLESGGGLVQPGGSLRLSCAASGFTFGSAAMDWVRQAPGKGLEWVSSINDMGSNTYYADSVKGRFTISRDNSKNTLYLQMNSLRAEDTAVYYCAKQGGRFDYWGQGTLVTVSS | 30 |  | 
2 | DMS0654 BMS3h-56-201-AST-DOM7h-11-3 (bispecific antibody, AlbudAb inline fusion (ILF): an anti-CD40 dAb and an anti-serum-albumin dAb joined by a linker in one polypeptide) EVQLLESGGGLVQPGGSLRLSCAASGFTFRDYEMWWVRQAPGKGLERVSAINPQGTRTYYADSVKGRFTISRDNSKNTLYLQMNSLRAEDTAVYYCAKLPFYFQEWGQGTLVTVSSASTDIQMTQSPSSLSASVGDRVTITCRASRPIGTTLSWYQQKPGKAPKLLILWNSRLQSGVPSRFSGSGSGTDFTLTISSLQPEDFATYYCAQAGTHPTTFGQGTKVEIKR |  | 15 | 8.6
3 | DMS0656 BMS3h-56-258-AST-DOM7h-11-3 (bispecific antibody, AlbudAb inline fusion (ILF): an anti-CD40 dAb and an anti-serum-albumin dAb joined by a linker in one polypeptide) EVQLLESGGGLVQPGGSLRLSCAASGFTFRDYEMWWVRQAPGKGLERVSAINPQGTRTYYADSVKGRFTISRDNSKNTLYLQMNSLRAEDTAVYYCAKLPFYFHEWGQGTLVTVSSASTDIQMTQSPSSLSASVGDRVTITCRASRPIGTTLSWYQQKPGKAPKLLILWNSRLQSGVPSRFSGSGSGTDFTLTISSLQPEDFATYYCAQAGTHPTTFGQGTKVEIKR |  | 11.8 | 26.8

The next lines start with the values.

Row | EC50 [1] [nM] | EC50 (human CD40 [2]) [nM] | EC50 (human CD40 [3]) [nM] | Binder
4 |  | 6.3 | 2.7 | DMS0655 BMS3h-56-201-AST-DOM7h-11-87 (bispecific antibody, AlbudAb inline fusion (ILF): an anti-CD40 dAb and an anti-serum-albumin dAb joined by a linker in one polypeptide) EVQLLESGGGLVQPGGSLRLSCAASGFTFRDYEMWWVRQAPGKGLERVSAINPQGTRTYYADSVKGRFTISRDNSKNTLYLQMNSLRAEDTAVYYCAKLPFYFQEWGQGTLVTVSSASTDIQMTQSPSSLSASVGDRVTITCRASRPIGTMLSWYQQKPGKAPKLLILAFSRLQSGVPSRFSGSGSGTDFTLTISSLQPEDFATYYCAQAGTHHTTFGQGTKVEIKR
5 |  | 6.8 | 16.6 | DMS0657 BMS3h-56-258-AST-DOM7h-11-87 (bispecific antibody, AlbudAb inline fusion (ILF): an anti-CD40 dAb and an anti-serum-albumin dAb joined by a linker in one polypeptide) EVQLLESGGGLVQPGGSLRLSCAASGFTFRDYEMWWVRQAPGKGLERVSAINPQGTRTYYADSVKGRFTISRDNSKNTLYLQMNSLRAEDTAVYYCAKLPFYFHEWGQGTLVTVSSASTDIQMTQSPSSLSASVGDRVTITCRASRPIGTMLSWYQQKPGKAPKLLILAFSRLQSGVPSRFSGSGSGTDFTLTISSLQPEDFATYYCAQAGTHHTTFGQGTKVEIKR
